Experimental data as given in US20220251222A1 (Johns Hopkins, published 2022).

Key:
[1] = target: T1, IL-6Rα and IL-8R co-expressed on IL-6Rα^+/IL-8R^+ HEK 293T cells (UniProt P08887 20-468; P25025 1-360, limits assumed); test: flow cytometry titration on IL-6Rα+/IL-8R+ HEK 293T cells (both targets present); IL-6Rα+/IL-8R+ 293T cells, both targets present (FIG. 7C)
T1 construct: whole, on cells; Not a complex: two separate receptors on the same cell; also called IL-6Rα^+/IL-8R^+ 293T cells
T1 sequence (looked up) 1: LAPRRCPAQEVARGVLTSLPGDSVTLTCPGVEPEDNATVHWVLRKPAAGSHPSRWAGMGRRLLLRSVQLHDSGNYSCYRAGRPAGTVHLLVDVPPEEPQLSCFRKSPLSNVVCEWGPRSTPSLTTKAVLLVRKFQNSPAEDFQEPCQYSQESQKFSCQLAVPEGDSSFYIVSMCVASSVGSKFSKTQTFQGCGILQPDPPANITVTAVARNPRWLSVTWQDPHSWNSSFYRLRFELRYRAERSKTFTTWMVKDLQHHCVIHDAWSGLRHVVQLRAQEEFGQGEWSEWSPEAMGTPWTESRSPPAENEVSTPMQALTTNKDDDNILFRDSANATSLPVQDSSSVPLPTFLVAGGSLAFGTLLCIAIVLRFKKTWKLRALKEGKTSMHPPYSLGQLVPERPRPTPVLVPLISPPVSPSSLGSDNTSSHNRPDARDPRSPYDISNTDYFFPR
T1 sequence (looked up) 2: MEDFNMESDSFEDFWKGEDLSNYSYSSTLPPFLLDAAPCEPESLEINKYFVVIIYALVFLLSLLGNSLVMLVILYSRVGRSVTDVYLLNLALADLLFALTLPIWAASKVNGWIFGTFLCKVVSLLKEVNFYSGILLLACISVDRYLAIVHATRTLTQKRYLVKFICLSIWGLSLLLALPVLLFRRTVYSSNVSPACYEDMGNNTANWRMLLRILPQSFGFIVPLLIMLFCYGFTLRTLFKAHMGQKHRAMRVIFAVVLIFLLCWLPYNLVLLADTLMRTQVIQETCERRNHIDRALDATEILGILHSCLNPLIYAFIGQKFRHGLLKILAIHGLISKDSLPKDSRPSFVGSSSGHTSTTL
Procedure: (§1) HEK 293T cells were cultured in Dulbecco's modified Eagle's medium (DMEM, Mediatech) supplemented with 10% (Hyclone), 2 mM L-glutamine and 100 U/mL penicillin-streptomycin (Gibco). For surface binding assays, IL-6Rα⁺/IL-8R⁻, IL-6Rα⁻/IL-8R⁺, IL-6Rα⁺/IL-8R⁺, and […] HEK 293T cells were trypsinized for detachment, resuspended in PBSA, and then aliquoted into 96-well plates (1×10⁵ cells per well). Cells were incubated with titrations of various monoclonal or bispecific antibodies for 2 hr at 4° C. with rotation. Cells were then washed and incubated with a 1:50 dilution of fluorescein isothiocyanate (FITC)-conjugated anti-human IgG1 antibody (Sigma-Aldrich, Clone 8c/6-39) in PBSA for 15 min at 4° C. After a final wash, cells were resuspended in PBSA and analyzed on a CytoFLEX flow cytometer (Beckman Coulter). Binding isotherms were fitted to a first-order logistic model and KD values were calculated using GraphPad Prism data analysis software. Mean fluorescence intensity (MFI) of unstimulated cells was subtracted. […]
(§2) To determine whether engineered bispecific binding agents BS1 and BS2 specifically engage target antigens in a physiologically relevant context, antibody binding to IL-6Rα⁺/IL-8R⁻, IL-6Rα⁻/IL-8R⁺, IL-6Rα⁺/IL-8R⁺, and IL-6Rα⁻/IL-8R⁻ lentivirally transduced HEK 293T cells was measured via flow cytometry. […]

[2] = target: T2, IL-8RB expressed on lentivirally transduced HEK 293T cells (UniProt P25025 1-360, limits assumed); test: competition with 400 nM His-tagged IL-8 on IL-6Rα-/IL-8R+ HEK 293T cells, flow cytometry
T2 construct: whole, on cells; also called IL-8R^+ cells; IL-6Rα^-/IL-8R^+ HEK 293T cells
T2 sequence (looked up): T1 sequence (looked up) 2
Procedure: IL-6Rα⁺/IL-8R⁻ and IL-6Rα⁻/IL-8R⁺ HEK 293T cells were cultured as previously described, and were trypsinized, resuspended in PBSA, and aliquoted into 96-well plates (2×10⁵ cells per well). IL-6Rα⁺/IL-8R⁻ 293T cells were incubated with titrations of various monoclonal or bispecific antibodies in the presence of saturating concentration of biotinylated IL-6 (100 nM) (Acro Biosystem, cat #: IL6-H8218-25UG) for 2 hr at 4° C. with rotation. Cells were then washed and incubated with 1:200 dilution of Alexa Fluor 647-conjugated streptavidin (Fisher Scientific, cat #: S21374) in PBSA for 15 min at 4° C. After a final wash, cells were resuspended in PBSA and analyzed on a CytoFLEX flow cytometer (Beckman Coulter). Curves were fitted to a first-order logistic model and IC₅₀ values were calculated using GraphPad Prism data analysis software. Mean fluorescence intensity (MFI) of unstimulated cells was subtracted. Similarly, IL-6Rα⁻/IL-8R⁺ 293T cells were incubated with titrations of various monoclonal or bispecific antibodies with saturating concentration of His-tagged IL-8 (400 nM) (Sino Biological, cat #: 10098-H08Y-100) for 2 hr at 4° C. with rotation. […] After a final wash, cells were resuspended in PBSA and analyzed on a CytoFLEX flow cytometer (Beckman Coulter). Curves were fitted to a first-order logistic model and IC₅₀ values were calculated using GraphPad Prism data analysis software. […]

[3] = target: T3, IL-6Rα expressed on lentivirally transduced HEK 293T cells (UniProt P08887 20-468, limits assumed); test: flow cytometry titration on IL-6Rα+/IL-8R+ HEK 293T cells; IL-6Rα+/IL-8R+ 293T cells (FIG. 7C)
T3 construct: whole, on cells; also called IL-6Rα^+ cells; IL-6Rα^+/IL-8R^- HEK 293T cells
T3 sequence (looked up): T1 sequence (looked up) 1
Procedure: as §1, §2

B1: BS2 bispecific antibody (scFv-IgG fusion: 10H2 IgG with tocilizumab scFv on the light chains) (bispecific antibody)
heavy: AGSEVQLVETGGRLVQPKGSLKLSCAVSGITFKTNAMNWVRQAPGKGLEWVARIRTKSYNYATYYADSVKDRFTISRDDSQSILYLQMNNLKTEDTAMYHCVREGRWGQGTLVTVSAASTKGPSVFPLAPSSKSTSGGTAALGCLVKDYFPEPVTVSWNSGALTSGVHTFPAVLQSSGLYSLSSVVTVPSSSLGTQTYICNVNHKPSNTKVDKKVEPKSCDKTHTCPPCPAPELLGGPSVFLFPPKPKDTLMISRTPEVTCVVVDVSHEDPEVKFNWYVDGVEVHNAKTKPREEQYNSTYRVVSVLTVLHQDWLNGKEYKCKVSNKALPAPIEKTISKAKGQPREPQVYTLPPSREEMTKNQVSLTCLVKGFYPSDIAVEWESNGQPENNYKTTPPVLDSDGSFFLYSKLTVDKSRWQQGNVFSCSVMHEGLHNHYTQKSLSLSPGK
light: AGSQAVVTQESALTTSPGETVTLTCRSSTGAVTTSNYANWVQEKPDHLFTGLIGGTNNRPPGVPARFSGSLIGDKAALTITGAQIEDEAIYFCALWYSNHLVFGGGTKLTVLRTVAAPSVFIFPPSDEQLKSGTASVVCLLNNFYPREAKVQWKVDNALQSGNSQESVTEQDSKDSTYSLSSTLTLSKADYEKHKVYACEVTHQGLSSPVTKSFNRGECGGGGSGGGGSEVQLQESGPGLVRPSQTLSLTCTVSGYSITSDHAWSWVRQPPGRGLEWIGYISYSGITTYNPSLKSRVTMLRDTSKNQFSLRLSSVTAADTAVYYCARSLARTTAMDYWGQGSLVTVSSGGGGSGGGGSGGGGSDIQMTQSPSSLSASVGDRVTITCRASQDISSYLNWYQQKPGKAPKLLIYYTSRLHSGVPSRFSGSGSGTDFTFTISSLQPEDIATYYCQQGNTLPYTFGQGTKVEIK
notes: Human IgG1-based
Question: How did the Kd [1] turn out when B1 was run?
Answer: 3.4 nM

Question: What about the IC50 [2] of the same binder?
Answer: 22 nM

B2: tocilizumab, recombinant monoclonal hIgG1 (anti-IL-6Rα) (antibody, V domains shown)
VH: EVQLQESGPGLVRPSQTLSLTCTVSGYSITSDHAWSWVRQPPGRGLEWIGYISYSGITTYNPSLKSRVTMLRDTSKNQFSLRLSSVTAADTAVYYCARSLARTTAMDYWGQGSLVTVSS
VL: DIQMTQSPSSLSASVGDRVTITCRASQDISSYLNWYQQKPGKAPKLLIYYTSRLHSGVPSRFSGSGSGTDFTFTISSLQPEDIATYYCQQGNTLPYTFGQGTKVEIK
notes: also called anti-IL-6Rα antibody
Question: Which Kd [3] does the source give for B2 here?
Answer: 3.1 nM
